Laboratory results taken from patent US20250283871A1, “COMPOSITIONS AND METHODS FOR MODULATING THE INTERACTION BETWEEN SS18-SSX FUSION ONCOPROTEIN AND NUCLEOSOMES” (Dana-Farber Cancer Institute, Inc., priority 2020, published 2025).
Values joined by “and” are separate entries in the source; they are usually repeats but may differ in a detail not shown here. Equal values may be shown once. Each block holds one substance with its values, some of them ahead of it.

Experiments:
[1] = target: cellular chromatin (endogenous nucleosomes; core histones H2A, H2B, H3, H4) (human) (UniProt P0C0S8); assay: cell-based or functional assay
[2] = target: LZIC (sp|Q8WZA0|LZIC_HUMAN) (human) (UniProt Q8WZA0); assay: HA affinity purification from HEK-293T nuclear extract, mass spectrometry peptide counts
[3] = target: LPGAT1 (sp|Q92604|LGAT1_HUMAN) (human) (UniProt Q92604); assay: as above
[4] = target: KCNMA1 (tr|A0A1W2PP06|A0A1W2PP06_HUMAN) (human) (UniProt Q12791); assay: as above
[5] = target: cellular chromatin (endogenous nucleosomes; core histones H2A, H2B, H3, H4) (human) (UniProt P0C0S8); assay: differential salt extraction, immunoblot
[6] = target: recombinant, unmodified mononucleosomes (UniProt P04908); assay: AlphaLISA; 95% CI 9.1-53.3
[7] = target: recombinant H2A K119Ub mononucleosomes (UniProt P04908); assay: AlphaLISA; 95% CI 2.3-9.1
[8] = target: TSP1_HUMAN Thrombospondin-1 (human) (UniProt P07996); assay: anti-SMARCA4 (BRG1) IP, mass spectrometry, human fibroblasts
[9] = target: mammalian mononucleosomes (HEK293T) carrying H4(4to17)K5ac1K8ac1K12ac1K16ac1me0 (mammalian (HEK293T)) (UniProt P62805); assay: MBP-SSX1 78aa pull-down, targeted histone MS
[10] = target: mammalian mononucleosomes (HEK293T) carrying H2B(1to29)K5ac1 (mammalian (HEK293T)) (UniProt P62807); assay: MBP-SSX1 78aa pull-down, targeted histone MS
[11] = target: mammalian mononucleosomes (HEK293T) carrying H4(4to17)K5ac1me0 (mammalian (HEK293T)) (UniProt P62805); assay: MBP-SSX1 78aa pull-down, targeted histone MS
[12] = target: mammalian mononucleosomes (HEK293T) carrying H4(4to17)K12ac1K16ac1me0 (mammalian (HEK293T)) (UniProt P62805); assay: MBP-SSX1 78aa pull-down, targeted histone MS
[13] = target: mammalian mononucleosomes (HEK293T) carrying H3K9me2S10ph1K14ac1 (mammalian (HEK293T)) (UniProt P68431); assay: MBP-SSX1 78aa pull-down, targeted histone MS
[14] = target: mammalian mononucleosomes (HEK293T) carrying H4(20to23)K20me3 (mammalian (HEK293T)) (UniProt P62805); assay: MBP-SSX1 78aa pull-down, targeted histone MS
[15] = target: mammalian mononucleosomes (HEK293T) carrying H2A(12to17)K15ac1 (mammalian (HEK293T)) (UniProt P0C0S8); assay: MBP-SSX1 78aa pull-down, targeted histone MS
[16] = target: mammalian mononucleosomes (HEK293T) carrying H3K9me2S10ph1K14ac0 (mammalian (HEK293T)) (UniProt P68431); assay: MBP-SSX1 78aa pull-down, targeted histone MS
[17] = target: mammalian mononucleosomes (HEK293T) carrying H2A(12to17)ac0 (mammalian (HEK293T)) (UniProt P0C0S8); assay: MBP-SSX1 78aa pull-down, targeted histone MS
[18] = target: mammalian mononucleosomes (HEK293T) carrying H2A(4to11)K5ac1K9ac1 (mammalian (HEK293T)) (UniProt P0C0S8); assay: MBP-SSX1 78aa pull-down, targeted histone MS
[19] = target: mammalian mononucleosomes (HEK293T) carrying H4(4to17)K5ac1K16ac1me0 (mammalian (HEK293T)) (UniProt P62805); assay: MBP-SSX1 78aa pull-down, targeted histone MS
[20] = target: mammalian mononucleosomes (HEK293T) carrying H3K4me1 (mammalian (HEK293T)) (UniProt P68431); assay: MBP-SSX1 78aa pull-down, targeted histone MS
[21] = target: mammalian mononucleosomes (HEK293T) carrying H3K4me2 (mammalian (HEK293T)) (UniProt P68431); assay: MBP-SSX1 78aa pull-down, targeted histone MS
[22] = target: mammalian mononucleosomes (HEK293T) carrying H4(4to17)K12ac1me0 (mammalian (HEK293T)) (UniProt P62805); assay: MBP-SSX1 78aa pull-down, targeted histone MS
[23] = target: mammalian mononucleosomes (HEK293T) carrying H4(4to17)K5ac1K8ac1K16ac1me0 (mammalian (HEK293T)) (UniProt P62805); assay: MBP-SSX1 78aa pull-down, targeted histone MS
[24] = target: mammalian mononucleosomes (HEK293T) carrying H4(4to17)K8ac1K12ac1me0 (mammalian (HEK293T)) (UniProt P62805); assay: MBP-SSX1 78aa pull-down, targeted histone MS
[25] = target: mammalian mononucleosomes (HEK293T) carrying H4(20to23)K20me1 (mammalian (HEK293T)) (UniProt P62805); assay: MBP-SSX1 78aa pull-down, targeted histone MS
[26] = target: mammalian mononucleosomes (HEK293T) carrying H4(4to17)K5ac1K8ac1K12ac1me0 (mammalian (HEK293T)) (UniProt P62805); assay: MBP-SSX1 78aa pull-down, targeted histone MS
[27] = target: mammalian mononucleosomes (HEK293T) carrying H3K9me1S10ph1K14ac1 (mammalian (HEK293T)) (UniProt P68431); assay: MBP-SSX1 78aa pull-down, targeted histone MS
[28] = target: mammalian mononucleosomes (HEK293T) carrying H4(20to23)K20me2 (mammalian (HEK293T)) (UniProt P62805); assay: MBP-SSX1 78aa pull-down, targeted histone MS
[29] = target: mammalian mononucleosomes (HEK293T) carrying H2A(4to11)K5ac1 (mammalian (HEK293T)) (UniProt P0C0S8); assay: MBP-SSX1 78aa pull-down, targeted histone MS
[30] = target: mammalian mononucleosomes (HEK293T) carrying H4(4to17)ac0me0 (mammalian (HEK293T)) (UniProt P62805); assay: MBP-SSX1 78aa pull-down, targeted histone MS
[31] = target: mammalian mononucleosomes (HEK293T) carrying H4(4to17)K16ac1me0 (mammalian (HEK293T)) (UniProt P62805); assay: MBP-SSX1 78aa pull-down, targeted histone MS
[32] = target: mammalian mononucleosomes (HEK293T) carrying H4(20to23)K20me0 (mammalian (HEK293T)) (UniProt P62805); assay: MBP-SSX1 78aa pull-down, targeted histone MS
[33] = target: mammalian mononucleosomes (HEK293T) carrying H2A(12to17)K13ac1 (mammalian (HEK293T)) (UniProt P0C0S8); assay: MBP-SSX1 78aa pull-down, targeted histone MS
[34] = target: mammalian mononucleosomes (HEK293T) carrying H4(4to17)K8ac1K12ac1K16ac1me0 (mammalian (HEK293T)) (UniProt P62805); assay: MBP-SSX1 78aa pull-down, targeted histone MS
[35] = target: mammalian mononucleosomes (HEK293T) carrying H2A(4to11)K9ac1 (mammalian (HEK293T)) (UniProt P0C0S8); assay: MBP-SSX1 78aa pull-down, targeted histone MS
[36] = target: mammalian mononucleosomes (HEK293T) carrying H3K9me3S10ph1K14ac0 (mammalian (HEK293T)) (UniProt P68431); assay: MBP-SSX1 78aa pull-down, targeted histone MS
[37] = target: mammalian mononucleosomes (HEK293T) carrying H2AZ(1to19)ac0 (mammalian (HEK293T)) (UniProt P0C0S5); assay: MBP-SSX1 78aa pull-down, targeted histone MS
[38] = target: mammalian mononucleosomes (HEK293T) carrying H2A(4to11)ac0 (mammalian (HEK293T)) (UniProt P0C0S8); assay: MBP-SSX1 78aa pull-down, targeted histone MS
[39] = target: mammalian mononucleosomes (HEK293T) carrying H3K4ac1 (mammalian (HEK293T)) (UniProt P68431); assay: MBP-SSX1 78aa pull-down, targeted histone MS
[40] = target: mammalian mononucleosomes (HEK293T) carrying H2AZ(1to19)K4ac1 (mammalian (HEK293T)) (UniProt P0C0S5); assay: MBP-SSX1 78aa pull-down, targeted histone MS
[41] = target: mammalian mononucleosomes (HEK293T) carrying H3K4me3 (mammalian (HEK293T)) (UniProt P68431); assay: MBP-SSX1 78aa pull-down, targeted histone MS
[42] = target: mammalian mononucleosomes (HEK293T) carrying H4(4to17)K5ac1K8ac1me0 (mammalian (HEK293T)) (UniProt P62805); assay: MBP-SSX1 78aa pull-down, targeted histone MS
[43] = target: recombinant H2A K119Ub mononucleosomes (UniProt P04908); assay: AlphaLISA; 95% CI 7.2-48.5
[44] = target: mammalian mononucleosome (HEK293T) carrying histone H3 K79me1 (human (HEK-293T cells)) (UniProt P68431); assay: MBP-SSX1 78aa pull-down of pooled HEK293T mononucleosomes, targeted quantitative histone MS; input c3-c5: 0.268, 0.441, 0.301
[45] = target: mammalian mononucleosome (HEK293T) carrying histone H3 K79me2 (human (HEK-293T cells)) (UniProt P68431); assay: MBP-SSX1 78aa pull-down of pooled HEK293T mononucleosomes, targeted quantitative histone MS; input c3-c5: 0.498, 0.469, 0.455

FRAP recovery half-time [1]: 33.9 s
Substance: GFP-SS18-SSX1

Total peptides [2]: 1 peptides
Unique peptides [2]: 1 peptides
Total peptides [3]: 1 peptides
Unique peptides [3]: 1 peptides
Total peptides [4]: 1 peptides
Unique peptides [4]: 1 peptides
Substance: HA-SS18 WT (from UniProt Q15532 1-387)

FRAP recovery half-time [1]: 10.1 s
Substance: GFP-SS18 WT (from UniProt Q15532 2-418)

NaCl concentration of elution from chromatin [5]: 300 to 500 mM
Substance: wild-type SS18-bound BAF complexes (HA-SS18 WT purification) (from UniProt Q15532 1-387)

EC50 [6]: 0.0221 µM
EC50 [7]: 0.0046 µM
Substance: GST-SSX1 (78aa) (from UniProt Q16384 111-188)

NaCl concentration of elution from chromatin [5]: > 1000 mM
Substance: SS18-SSX-bound BAF complexes (HA-SS18-SSX1 purification)

NSAF [8]: 0.000217
Substance: SMCA4_HUMAN Transcription activator BRG1 (from UniProt P51532 1-1647)

log2norm (Light/Heavy) intensity ratio [9]: 0.276 log2 and 0.245 log2
log2norm (Light/Heavy) intensity ratio [10]: 0.273 log2 and 0.323 log2
log2norm (Light/Heavy) intensity ratio [11]: -0.053 log2 and 0.075 log2
log2norm (Light/Heavy) intensity ratio [12]: 0.204 log2 and 0.304 log2
log2norm (Light/Heavy) intensity ratio [13]: -0.87 log2 and -1.01 log2
log2norm (Light/Heavy) intensity ratio [14]: -0.109 log2 and 0.055 log2
log2norm (Light/Heavy) intensity ratio [15]: 0.042 log2 and -0.086 log2
log2norm (Light/Heavy) intensity ratio [16]: -0.683 log2 and -1.09 log2
log2norm (Light/Heavy) intensity ratio [17]: 0.201 log2 and -0.12 log2
log2norm (Light/Heavy) intensity ratio [18]: -0.031 log2 and -0.049 log2
log2norm (Light/Heavy) intensity ratio [19]: 0.226 log2 and 0.367 log2
log2norm (Light/Heavy) intensity ratio [20]: 0.74 log2 and 0.353 log2
log2norm (Light/Heavy) intensity ratio [21]: 0.778 log2 and 0.532 log2
log2norm (Light/Heavy) intensity ratio [22]: -0.207 log2 and -0.275 log2
log2norm (Light/Heavy) intensity ratio [23]: 0.474 log2 and 0.311 log2
log2norm (Light/Heavy) intensity ratio [24]: -0.198 log2 and -0.093 log2
log2norm (Light/Heavy) intensity ratio [25]: -0.427 log2 and -0.443 log2
log2norm (Light/Heavy) intensity ratio [26]: -0.223 log2 and -0.27 log2
log2norm (Light/Heavy) intensity ratio [27]: -2.67 log2 and -2.51 log2
log2norm (Light/Heavy) intensity ratio [28]: -0.414 log2 and -0.391 log2
log2norm (Light/Heavy) intensity ratio [29]: 0.569 log2 and 0.624 log2
log2norm (Light/Heavy) intensity ratio [30]: -0.613 log2 and -0.573 log2
log2norm (Light/Heavy) intensity ratio [31]: -0.391 log2 and -0.337 log2
log2norm (Light/Heavy) intensity ratio [32]: 0.017 log2 and 0.092 log2
log2norm (Light/Heavy) intensity ratio [33]: 0.032 log2 and -0.047 log2
log2norm (Light/Heavy) intensity ratio [34]: 0.677 log2 and 0.625 log2
log2norm (Light/Heavy) intensity ratio [35]: -0.254 log2 and -0.375 log2
log2norm (Light/Heavy) intensity ratio [36]: -0.566 log2 and -1.03 log2
log2norm (Light/Heavy) intensity ratio [37]: -0.784 log2 and -0.697 log2
log2norm (Light/Heavy) intensity ratio [38]: -0.026 log2 and 0.061 log2
log2norm (Light/Heavy) intensity ratio [39]: 0.263 log2 and 0.32 log2
log2norm (Light/Heavy) intensity ratio [40]: -0.217 log2 and 0.048 log2
log2norm (Light/Heavy) intensity ratio [41]: 0.766 log2 and 0.505 log2
log2norm (Light/Heavy) intensity ratio [42]: 0.107 log2 and 0.094 log2
Substance: MBP-SSX1 78aa protein (from UniProt Q16384 111-188)

EC50 [43]: 0.0187 µM
Substance: GST-SSXdel7aa (acidic C-term DPEEDDE-->AAAAAAA) (from UniProt Q16384 111-181)

log2norm (Light/Heavy) intensity ratio normalized to histone norm peptide [44]: 0.954 log2 and 0.54 log2
log2norm (Light/Heavy) intensity ratio normalized to histone norm peptide [45]: 0.826 log2 and 0.557 log2
Substance: MBP-SSX1 78aa (from UniProt Q16384 111-188)
